For ten molecules, EC50 results are on record in patent US20110263827A1 (AbbVie / Abbott, published 2011).

B1: DVD781 (bispecific antibody)
VH: QVQLQESGPGLVKPSQTLSLTCTVSGYSISSDFAWNWIRQPPGKGLEWMGYISYSGNTRYQPSLKSRITISRDTSKNQFFLKLNSVTAADTATYYCVTAGRGFPYWGQGTLVTVSSASTKGPSVFPLAPEVQLVESGGGLVQPGGSLRLSCAASGFTFTDNWISWVRQAPGKGLEWVGYISPNSGFTYYADSVKGRFTISADTSKNTAYLQMNSLRAEDTAVYYCARDNFGGYFDYWGQGTLVTVSS
VL: DIQMTQSPSSMSVSVGDRVTITCHSSQDINSNIGWLQQKPGKSFKGLIYHGTNLDDGVPSRFSGSGSGTDYTLTISSLQPEDFATYYCVQYAQFPWTFGGGTKLEIKRTVAAPSVFIFPPDIQMTQSPSSLSASVGDRVTITCRASQDVSTAVAWYQQKPGKAPKLLIYSASFLYSGVPSRFSGSGSGTDFTLTISSLQPEDFATTYYCQQSYTGTVTFGQGTKVEIKR
notes: DVD-Ig; HC L, LC L; variable parts only
B2: DVD841 (bispecific antibody)
VH: QVQLQESGPGLVKPSQTLSLTCTVSGYSISSDFAWNWIRQPPGKGLEWMGYISYSGNTRYQPSLKSRITISRDTSKNQFFLKLNSVTAADTATYYCVTAGRGFPYWGQGTLVTVSSASTKGPEVQLVESGGGLVQPGGSLRLSCAASGFTFTDNWISWVRQAPGKGLEWVGYISPNSGFTYYADSVKGRFTISADTSKNTAYLQMNSLRAEDTAVYYCARDNFGGYFDYWGQGTLVTVSS
VL: B1 VL
notes: DVD-Ig; HC S, LC L; variable parts only
B3: DVD811 (bispecific antibody)
VH: B1 VH
VL: DIQMTQSPSSMSVSVGDRVTITCHSSQDINSNIGWLQQKPGKSFKGLIYHGTNLDDGVPSRFSGSGSGTDYTLTISSLQPEDFATYYCVQYAQFPWTFGGGTKLEIKRTVAAPDIQMTQSPSSLSASVGDRVTITCRASQDVSTAVAWYQQKPGKAPKLLIYSASFLYSGVPSRFSGSGSGTDFTLTISSLQPEDFATTYYCQQSYTGTVTFGQGTKVEIKR
notes: DVD-Ig; HC L, LC S; variable parts only
B4: DVD339 (bispecific antibody)
VH: B2 VH
VL: B3 VL
notes: DVD-Ig; HC S, LC S; variable parts only
B5: DVD340 (bispecific antibody)
VH: EVQLVESGGGLVQPGGSLRLSCAASGFTFTDNWISWVRQAPGKGLEWVGYISPNSGFTYYADSVKGRFTISADTSKNTAYLQMNSLRAEDTAVYYCARDNFGGYFDYWGQGTLVTVSSASTKGPQVQLQESGPGLVKPSQTLSLTCTVSGYSISSDFAWNWIRQPPGKGLEWMGYISYSGNTRYQPSLKSRITISRDTSKNQFFLKLNSVTAADTATYYCVTAGRGFPYWGQGTLVTVSS
VL: DIQMTQSPSSLSASVGDRVTITCRASQDVSTAVAWYQQKPGKAPKLLIYSASFLYSGVPSRFSGSGSGTDFTLTISSLQPEDFATTYYCQQSYTGTVTFGQGTKVEIKRTVAAPDIQMTQSPSSMSVSVGDRVTITCHSSQDINSNIGWLQQKPGKSFKGLIYHGTNLDDGVPSRFSGSGSGTDYTLTISSLQPEDFATYYCVQYAQFPWTFGGGTKLEIKR
notes: as for B4
B6: DVD782 (bispecific antibody)
VH: EVQLVESGGGLVQPGGSLRLSCAASGFTFTDNWISWVRQAPGKGLEWVGYISPNSGFTYYADSVKGRFTISADTSKNTAYLQMNSLRAEDTAVYYCARDNFGGYFDYWGQGTLVTVSSASTKGPSVFPLAPQVQLQESGPGLVKPSQTLSLTCTVSGYSISSDFAWNWIRQPPGKGLEWMGYISYSGNTRYQPSLKSRITISRDTSKNQFFLKLNSVTAADTATYYCVTAGRGFPYWGQGTLVTVSS
VL: DIQMTQSPSSLSASVGDRVTITCRASQDVSTAVAWYQQKPGKAPKLLIYSASFLYSGVPSRFSGSGSGTDFTLTISSLQPEDFATTYYCQQSYTGTVTFGQGTKVEIKRTVAAPSVFIFPPDIQMTQSPSSMSVSVGDRVTITCHSSQDINSNIGWLQQKPGKSFKGLIYHGTNLDDGVPSRFSGSGSGTDYTLTISSLQPEDFATYYCVQYAQFPWTFGGGTKLEIKR
notes: as for B1
B7: DVD842 (bispecific antibody)
VH: B5 VH
VL: B6 VL
notes: as for B2
B8: DVD812 (bispecific antibody)
VH: B6 VH
VL: B5 VL
notes: as for B3
B9: DVD783 (bispecific antibody)
VH: QVQLQESGPGLVKPSQTLSLTCTVSGYSISSDFAWNWIRQPPGKGLEWMGYISYSGNTRYQPSLKSRITISRDTSKNQFFLKLNSVTAADTATYYCVTAGRGFPYWGQGTLVTVSSASTKGPSVFPLAPQVQLQQSGAELVKPGASVKISCKASGYTFTDYYINWVKLAPGQGLEWIGWIYPGSGNTKYNEKFKGKATLTIDTSSSTAYMQLSSLTSEDTAVYFCVRDSPFFDYWGQGTLLTVSS
VL: DIQMTQSPSSMSVSVGDRVTITCHSSQDINSNIGWLQQKPGKSFKGLIYHGTNLDDGVPSRFSGSGSGTDYTLTISSLQPEDFATYYCVQYAQFPWTFGGGTKLEIKRTVAAPSVFIFPPDIVLTQSPDSLAVSLGERVTMNCKSSQSLLNSGMRKSFLAWYQQKPGQSPKLLIYWASTRESGVPDRFTGSGSGTDFTLTISSVQAEDVAVYYCKQSYHLFTFGSGTKLEIKR
notes: as for B1
B10: DVD813 (bispecific antibody)
VH: B9 VH
VL: DIQMTQSPSSMSVSVGDRVTITCHSSQDINSNIGWLQQKPGKSFKGLIYHGTNLDDGVPSRFSGSGSGTDYTLTISSLQPEDFATYYCVQYAQFPWTFGGGTKLEIKRTVAAPDIVLTQSPDSLAVSLGERVTMNCKSSQSLLNSGMRKSFLAWYQQKPGQSPKLLIYWASTRESGVPDRFTGSGSGTDFTLTISSVQAEDVAVYYCKQSYHLFTFGSGTKLEIKR
notes: as for B3

The target in the first test is T1, DLL-4 (UniProt Q9NR61 27-524, limits assumed, biotinylated).
T1 construct: ELISA antigen
Description: direct bind ELISA, C-term VD.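 Also: ELISA with antibody or DVD-Ig preparations applied to target antigen-coated plates for 1 h at room temperature, TMB colour development, absorbance read at 450 nm.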 In general terms: ELISA stands for enzyme-linked immunosorbent assay.
A word on the EC50: it is the concentration giving half of the maximal effect. For the molecule B1, the response was half-maximal at 0.42 nM (EC50).

Regarding B2, the EC50 came to 0.55 nM. This EC50 and that of the molecule before are within 1.5-fold of each other.

The molecule B3 gave an EC50 of 0.99 nM.

For the molecule B4, the EC50 was 4.01 nM.

The target in the next test is T2, EGFR (UniProt P00533 25-645, limits assumed, biotinylated).
T2 construct: ELISA antigen; construct not described
In words: direct bind ELISA, C-term VD.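 Also: ELISA with antibody or DVD-Ig preparations applied to target antigen-coated plates for 1 h at room temperature, TMB colour development, absorbance read at 450 nm.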
With B5, the EC50 was 189 nM.

With B6, the EC50 amounted to 55.2 nM.

With B7, the EC50 came to 51.7 nM.

In the case of B8, the EC50 stood at 77.3 nM.

For a further test, the target named is T3, PLGF (UniProt P49763-2 21-149, limits assumed, biotinylated).
T3 construct: ELISA antigen; also called P1GF
T3 sequence (looked up): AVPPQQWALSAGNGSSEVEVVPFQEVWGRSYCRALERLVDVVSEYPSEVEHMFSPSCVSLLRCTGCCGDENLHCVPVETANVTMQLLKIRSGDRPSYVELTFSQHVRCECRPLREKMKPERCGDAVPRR
Description: direct bind ELISA, C-term VD.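 Also: ELISA with antibody or DVD-Ig preparations applied to target antigen-coated plates for 1 h at room temperature, TMB colour development, absorbance read at 450 nm.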
In turn, B9 showed an EC50 of 0.36 nM.

With B10, the EC50 was determined as 0.44 nM.

Another test concerns the target T1, DLL-4. In words: direct bind ELISA, N-term VD.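 Also: antibody or DVD-Ig preparations bound to immobilized target antigen on ELISA plates, 1 h at room temperature, TMB detection read as absorbance at 450 nm.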
The molecule B5 gave an EC50 of 0.32 nM.

Molecule B6 registered a concentration giving a half-maximal response (EC50) of 0.37 nM.

Regarding B7, the EC50 is 0.36 nM. The EC50 values of the last two molecules are within 1.5-fold of each other.

In turn, B8 displayed an EC50 of 0.39 nM.

Another test addresses T2, EGFR. Description: direct bind ELISA, N-term VD.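 Also: antibody or DVD-Ig preparations bound to immobilized target antigen on ELISA plates, 1 h at room temperature, TMB detection read as absorbance at 450 nm.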
Take B1: the EC50 is 4.19 nM.

Molecule B2 came in with an EC50 of 4.06 nM.

In the case of B3, the midpoint of the response, the EC50, lay at 3.45 nM.

With B9, a half-maximal response (EC50) required 3.88 nM.

Take B10: the EC50 stood at 3.41 nM.

On to B4, for which the response was half-maximal at 5.1 nM (EC50). This EC50 and that of the molecule before are within 1.5-fold of each other.
